One test has as its target IL-4R on HEK-Blue cells (human, UniProt P24394 26-825). Briefly: cell-based or functional assay.
The target in another test is T1, cynomolgus IL-4R-Fc (cynomolgus monkey (Macaca fascicularis), UniProt A0A2K5V580 33-239).
T1 construct: also called cynomolgus IL-4R (capture setup); not shown: Fc part
Nature of the test: SPR, capture setup: cynomolgus IL-4R-Fc captured, scFv as analyte. (In general: SPR reads the build-up and loss of mass on a sensor chip optically.)

The target of test [1] is T2, Biotinylated IL-4R (human, UniProt P24394 26-232, limits assumed, biotinylated).
T2 construct: also called human IL-4R; hIL-4R
Nature of the test: competitive ELISA: IL-4 coated, biotinylated IL-4R preincubated with scFv. An excerpt: Bound biotinylated IL-4R was then detected using streptavidin-HRP.
A general note: ELISA stands for enzyme-linked immunosorbent assay.

The target in a further test is T3, Human IL-4R-Fc (human, UniProt P24394 26-232).
T3 construct: not shown: Fc part (captured via anti-human IgG-Fc)
Briefly: SPR (Biacore T200), human IL-4R-Fc captured, scFv as analyte 0.12 to 90 nM, 1:1 model. The procedure: Affinity of the 16 humanized scFvs (derived from 5 rabbit monoclonal antibodies) to human IL-4R was determined by SPR analysis on a T200 device (Biacore, GE Healthcare). Human IL-4R-Fc was captured via an anti-human IgG-Fc coupled to a carboxylmethylated dextran surface and the scFvs were injected as analyte. After each analyte injection cycle the sensor chip was regenerated and new antigen was captured. The scFvs were measured using a dose response multi-cycle kinetic assay with seven analyte concentrations ranging from 0.12 to 90 nM diluted in running buffer. Obtained sensorgrams were fitted using a 1:1 binding model.
The scFvs were measured using a dose response multi-cycle kinetic assay with seven analyte concentrations ranging from 0.12 to 90 nM diluted in running buffer. Obtained sensorgrams were fitted using a 1:1 binding model.

Test [2] concerns the target T2, Biotinylated IL-4R. Briefly: competitive ELISA: IL-4 coated, biotinylated IL-4R preincubated with antibody (plate of PRO1898).
Test [3] addresses T2, Biotinylated IL-4R. Nature of the test: competitive ELISA: IL-4 coated, biotinylated IL-4R preincubated with antibody (plate of PRO1899).
Test [4] has as its target T2, Biotinylated IL-4R. Nature of the test: competitive ELISA: human IL-4 coated on the plate, biotinylated IL-4R preincubated with the antagonist, bound IL-4R detected with streptavidin-HRP; blocked ligand human IL-4.
The target of test [5] is T2, Biotinylated IL-4R. The test is described as above. This is another data set of the same source.
The target of test [6] is T2, Biotinylated IL-4R. The description is as above. This is another data set of the same source.
Test [7] concerns the target T2, Biotinylated IL-4R. The description is as above. The source holds these as a separate data set.
Test [8] addresses T2, Biotinylated IL-4R. Nature of the test: competitive ELISA: human IL-4 coated on the plate, biotinylated IL-4R preincubated with the antagonist, bound IL-4R detected with streptavidin-HRP; blocked ligand human IL-4 [continued) E].

B1: PRO1899 (scFv)
scFv: DIQMTQSPSSLSASVGDRVTITCQASEDIESYLAWYQQKPGKAPKLLIYRASTLAYGVPSRFSGSGSGTDFTLTISSLQPEDFATYYCLGSSYSTGSNIFGTGTKVTVLGGGGGSGGGGSGGGGSGGGGSEVQLVESGGGRVQPGGSLRLSCAASGFSSSSAHYMCWVRQAPGKGLEWIGCIYAGSRGSTYYASWAKGRFTISKASSTTVYLQMNSLRAEDTATYYCARAAFVNRGVSWIWPYYFSLWGQGTQVTVSS
notes: optimized variant of PRO1517 (VH L12R, V103T, L144Q and RDNSKN changed to KASST, AHo 82-87); scFv VL-linker-VH; also called 44-34-C10-sc09
As to B1, in the test with IL-4R on HEK-Blue cells, the “IC50, neutralization of hIL-4 induced signaling in reporter gene assay” value came to 0.71 ng/mL; the “IC50, neutralization of hIL-13 induced signaling in reporter gene assay” value came to 0.56 ng/mL; the “rel. IC50 (IC50, dupilumab/IC50, test sample), hIL-4 induced signaling” value stood at 1.61 ratio; the “rel. IC50 (IC50, dupilumab/IC50, test sample), hIL-13 induced signaling” value was found to be 1.8 ratio. Moreover, in the test with cynomolgus IL-4R-Fc, the equilibrium dissociation constant (Kd) – broadly, a measure of binding affinity in units of concentration – is 12 pM; the koff (in general, the first-order rate constant of dissociation) worked out at 0.00014 s⁻¹; the kon (in general, the rate constant with which the complex forms) came out at 1.1e+07 M⁻¹ s⁻¹. For the same molecule, in the test with Biotinylated IL-4R [1], the IC50 (usually the point on the concentration scale where inhibition reaches its midpoint) was 2.98 ng/mL and the “rel. IC50 (IC50, dupilumab/IC50, test sample)” value is 2.07 ratio. In the test with Human IL-4R-Fc, this molecule registered a Kd of 6.92 pM, a koff of 2.04e-05 s⁻¹ and a kon of 2.95e+06 M⁻¹ s⁻¹.

B2: dupilumab (antibody, V domains shown)
VH: EVQLVESGGGLEQPGGSLRLSCAGSGFTFRDYAMTWVRQAPGKGLEWVSSISGSGGNTYYADSVKGRFTISRDNSKNTLYLQMNSLRAEDTAVYYCAKDRLSITIRPRYYGLDVWGQGTTVTVSS
VL: DIVMTQSPLSLPVTPGEPASISCRSSQSLLYSIGYNYLDWYLQKSGQSPQLLIYLGSNRASGVPDRFSGSGSGTDFTLKISRVEAEDVGFYYCMQALQTPYTFGQGTKLEIKR
For the molecule B2, the “IC50, neutralization of hIL-4 induced signaling in reporter gene assay” value with IL-4R on HEK-Blue cells turned out to be 1.15 ng/mL. In addition, the “IC50, neutralization of hIL-13 induced signaling in reporter gene assay” value in the test with IL-4R on HEK-Blue cells was 1 ng/mL. In addition, in the test with IL-4R on HEK-Blue cells, the “rel. IC50 (IC50, dupilumab/IC50, test sample), hIL-4 induced signaling” value is 1 ratio. Also, the “rel. IC50 (IC50, dupilumab/IC50, test sample), hIL-13 induced signaling” value in the test with IL-4R on HEK-Blue cells is 1 ratio. The IC50 worked out at 6.78 ng/mL in the test with Biotinylated IL-4R [2] and 6.18 ng/mL with Biotinylated IL-4R [3]. Further, the “rel. IC50 (IC50, dupilumab/IC50, test sample)” value in the test with Biotinylated IL-4R [2] and with Biotinylated IL-4R [3] was 1 ratio each time. For the same molecule, the “IC50 (read off the curve)” value was ~2 ng/mL with Biotinylated IL-4R [4]; ~2 ng/mL with Biotinylated IL-4R [5]; ~2 ng/mL in the test with Biotinylated IL-4R [6]; ~3 ng/mL with Biotinylated IL-4R [7]; ~2 ng/mL with Biotinylated IL-4R [8].

Source of the values: patent publication US20250282880A1 (NUMAB THERAPEUTICS, published 2025).
